Assay: yeast display, Sf9 membrane polyspecificity reagent, FACS + sequencing; frameworks hold sequencing errors
Procedure, shortened: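 Galactose-induced (36–48 hours) yeast carrying a synthetic nanobody display library were exposed to 10% biotinylated, detergent-solubilized Sf9 membrane reagent at 4 °C for 1 hour. FACS followed streptavidin microbead enrichment, using low and high (top ~1%) gates for expression (anti-HA) and reagent binding (streptavidin). Colony PCR, MiSeq 2 × 250 sequencing and CDR-length filtering followed. Labels for polyreactivity reflect the gate of origin.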

Row | Sequence | polyreactivity (PSR sort gate)
1 | QVQLVESGGGLVQAGGSLRLSCAASGSTFYIYAMGWYRQAPGKERELVARISGSGGSTYYSDSVKGRFTISRDNSKNTVYLQMNSLKPEVTAVYYCAADDIYKYYQYYAFPYYRYDYWGQGTQVTVSS | low polyreactivity
2 | QVQLVESGGGLVQAGGSLRLSCAASGFTFAGNARGWDRQSPGKERELVAAITSGGSTYYADSVKGRFTMSRDKAKNTVYLQMNSLKPEDTAVYYCAALVFRGRSFTHDYWGQGTQVTVSS | high polyreactivity
3 | QVQLVESGGCLVQAGGSLRLSCAASGSIFNRYTMGWYRQAPGKEREFVAAISSSGTSTYYADSVKGRFTISRDNAKNTVYLQMNILKPEDTAVYYCAADWTGGFYTWYVIPYDYWGQGTQVTVSS | low polyreactivity
4 | QVQLLESGAGLVQAGGSLRLSCAASGYIFYTYAMGWYRQAPGKERELVAAISSNGGSTYYADSVKGRFTISRDHAKNTVYLQMNSLKPEDTAVYYCAARGPYTRYRLSMDYWGQGTQVTVSS | high polyreactivity
5 | QVQLVESGGGLVQAGGSLRLSCAASGRTFKENAMGWYRQAPGKERELVAVINSGGRTYYADSVKGRFTISRDNAKNTVYLQMNSLKPEDTAVYYCAAYSRSKESGYWGQGTQVTVSS | high polyreactivity
6 | QVHLVESGGGLVQAGGILRLSCPASGQTFWAYAMGWYRQAPGKERELVAAISWRGGSTYYADSVKGRFTISRDNAKNTVYLQMNSLKPEDTAVYYCAAQYLYYGGRRYDFWGQGTQVTVSS | high polyreactivity
7 | QVQLVESGGGLVQAGGSLRLSCAASGSIFPIYAMGWDRQAPGKERELVASINISGGRTYYADSVKGRFTISRDNAKNTVYLQMNSLKPEDSAVYYCAAEWYTTSEYDYWGQGTQVTVSS | low polyreactivity
8 | QVQLQESGDGLVQAVGSLRLSCAASGYISGKYYMGWYRKAPGNERGLLDGIDACGSRTNYADCVKGRFTISRDNAHNTVYLQMNSLKPEDTAVYYCAARPDGDRLFSYWGQGTQVPVSS | low polyreactivity
9 | QVQLVESGGGIVQAGGSLRLSCAASGSIFGANAMVWYRQAPGKERELVAAISRRGGSTYYADSVKGRFTISRDNAKNTVYLQMNSLKPEDSAVYYCNTYPQSLGVKYGYWGQGTQVTVSS | high polyreactivity
10 | QVQLEESGGGLVQAGGSLRLSCAASGLTFTPNAMGWYRPAPGKEWELVAAITNGGSTNYADSVKGCFTISRDNAKNTVYLQMNSLKPEDTAVYYCAAECSYWFRRYGYWGQGTQVTVSS | high polyreactivity
11 | QVQLVESGGGLVQAGGSLRLSCAASGSIFFGYAMGWYRQAPGKERELVAGISSNGGTTYYADSVKGRFTISRDYAKNTVYLQMNSLKPEDTAVYYCAKQYYARGYLYDYWGQGTQVTVSS | low polyreactivity
12 | QVQLVESGGGLVQAGGSLRLSCAASGRIFPFYVMGWYRQAPGKERELVATINWSGGSTYYADSVKGRFTISRDNAKNTVYLQMNSLKPEDNAVYYCNAAPSDDYDYWGQGTQVTVSS | low polyreactivity
13 | QEHLVESGGGLDQAGGRLRLSCAASGSIFAAYAMGWYRHAPGKERELVAAIKWTDGSTYYADSVKGRFTISRDIAMNTVYLQMNSLKPEDTAVYYCIRRQYGRKKQYDYWVQGTQVTVSS | high polyreactivity
14 | QVQLVESGGGLVQAGGSLRLSCAASGRTFTNYAMGWYRQAPGKERELVASISNAGSTNYADSVKGRFTISRDNAKNTVYLQMNSLNPEDTAVYYCAADFFAGTQRTFDYWGQGTQVTVSS | high polyreactivity
15 | QVQHVESGGGLVQAGGSLRLSCAASMGWYRQAPGKERELVAAINSGGSTNYADSVKGRFTISRDNAKNTVYLQMNSLKPEDTAVYYCAKTFSNLPEYDYWGQGTQVTVSS | low polyreactivity
16 | QVQLVESGGGLVQAGGSLRLSCAASGRTFKYYAMGWYRQAPGKERELVASISNGGNTNYADSVKGRFTISRDNAKNTVYLQMNSLKPEDTAVYYCAAGYVVATRYDYWGQGTQVTVSS | high polyreactivity

Row | Sequence | polyreactivity (PSR sort gate)
17 | QVQLVESGGGLVQAGGSLRLSCAASGSIFEGYAMGWYRQAPGKERELVAAISRSGGSTYYADSVKGRFTISRDNAKNTVYLQMNSLKPEDTAVYYCAARKAIDYQGRHDHWGQGTQVTVSS | low polyreactivity
18 | QVQLVESGGGLVQAGGSLRLSCAASGRIFRYNAMVWNIQAPGKERELDAAISYRGTRTYYADSVKGRFTISRDNAKNTVYLQMNSLKPEDTAVYYCAKDSGYYTADDYDYWGQVTQVTVSS | low polyreactivity
19 | QVQLVESGGGLVLAGGSLRLSCAASGRIFTSARGWYRQAPGKERELVAAISSSGGRTYYADSVKGRFTISRDNAKNTVYLQMNSLKPEDTAVYYCNTRPGSVFRAGGDYWGQGTQVTVSS | high polyreactivity
20 | QVQLVESGGGLVQAGGSLRLSCAASGSTSPTNVMGWYRQAPGKERELVAAISYSGGRTYYADSVKGRFTISRDNAKNTVYLQMNSLKPEDTAVYYCNAGKRGSTYYYWGQGTQVTVSS | high polyreactivity
21 | QVQIVESRGGLVQAGGSLRLSCAASGSTIPYYAMGRYRQAPGKERELVARIRWNGDSTYYADSVKGRFTISRDIAKNTVYLQINSLKPEDTAVYYCARQGYTLYRTRNRYDYWGKGTQVTVSS | high polyreactivity
22 | QVHHVESGGGLVQAGGSLRLSSAASGSIISYYAMGWSRHAPGKERELVPAINRSGGSTYYADSVKGRFTITRDNAKNTVYLQMNSLKPDDTAVYYCNAVRLYYGAGGQFQYHYWGQGTHVTVSS | high polyreactivity
23 | QVQLVESGGGLVQAGGSLRLSCAASGRIFYRYAMGWYRQAPGKERELVATITNGGSTNYADSVKGRFTISRDNAKNTVYLQMNSLKPEDTAVYYCAARLPGYYGIGDYWGQGTQVTVSS | high polyreactivity
24 | QVQLVESGGGLVQAGGSLRLSCAASGFTFVSYAMGWYRQAPGKERELVAAISRSGGRTYYADSVKGRFTISRDNAKNTVYLQMNSLKPEDSAVYYCAKAYRPFYSRVQDYDYWGQGTQVTVSS | high polyreactivity
25 | QVQLVESGGGLVQAGGSLRLSCAASGSIFGGYTMGWYRPAPGKERELVAAITKNGGRTYYADSVKGRFTISRDTAKPTVYLQMNSLKPEDTAVYYCAAATSPSWYTWVTYDYWGQGTQVTVSS | high polyreactivity
26 | QVQLVESGGGLVQAGGSLRLSCAASGRTIEYNAMGWYRQAPGKEREFVAAITYSGGGTYYADSVKGRFTISRDNAKNTVYLQMNSLKPEDTAVYYCARERTRVHKHYYWGQGTQVTVSS | low polyreactivity
27 | QDQLVESGGGLVQAGGSLRLSCAASGFIFAYNAMGWYRQGPGKESELVAGITWNGGSTYYADSVKGRFTISRDNAKNSVYLQMNRLKPEETAVYYCAARRTWGYIYRLGYGMDYWGQGTQVTVSS | high polyreactivity
28 | QVQLVESGGGLVQAGGSLRLSCAASGFSFDTYAMGWYRQAPGKERELVAVISRGGSTYYADSVKGRFTISRDNAKNTVYLQMNSLKPEDTAVYYCAARSHGSYAYQYGYWGQGTQVTVSS | high polyreactivity
29 | QVQLVESGGGLVQAGGSLRLSCAASGFTSWYDMGWYRQAPGKEMELVAAISSGGSTNYADSVKGRFTISRDNAKNTVYLEMNSLKPEDTAVYYCNAECYETGVPYFGFYYWGQGTQVTVSS | low polyreactivity
30 | QVQLEESGGGLVQAGGSLRLSCAASGRIFLYKIMGSYREAPGQERDLVAAISWGTGSTYADSVKGRFTISRDNAINTVYLQIYRLKPEDTAVYYCDADSFMPPYYHWGQGTQVTVSS | low polyreactivity
31 | QVQLVESGAGLVQAGGSLRLSCAASGFSFQSYTMGWSRQAPGKERELVAAISRSGGRTYYADSVKGRFTISRDNAKNTVYLQMTSLKPEDTAVYYCAVDYRTRVDYWGQGTQLTVSS | high polyreactivity
32 | QVQLVESGGGLVQAGGSLRLSCAASGRIFTHNAMGWYRQAPGKERELVAAITSGGRTTYADSVKGRFTFSRDNAKNTVYLQMIRLKPEDTAVYYCNADTGLGSLDFDNRDYWGQGTQVTVSS | low polyreactivity

Reference: the nanobody polyreactivity screen of Harvey et al. (2022)
